Measurements reported in IntAct's records for PubMed 27820671.

B1: LIM/homeobox protein Lhx4 (Homo sapiens), Q969G2 (parent)
chain: MMQSATVPAEGAVKGLPEMLGVPMQQIPQCAGCNQHILDKFILKVLDRHWHSSCLKCADCQMQLADRCFSRAGSVYCKEDFFKRFGTKCTACQQGIPPTQVVRKAQDFVYHLHCFACIICNRQLATGDEFYLMEDGRLVCKEDYETAKQNDDSEAGAKRPRTTITAKQLETLKNAYKNSPKPARHVREQLSSETGLDMRVVQVWFQNRRAKEKRLKKDAGRHRWGQFYKSVKRSRGSSKQEKESSAEDCGVSDSELSFREDQILSELGHTNRIYGNVGDVTGGQLMNGSFSMDGTGQSYQDLRDGSPYGIPQSPSSISSLPSHAPLLNGLDYTVDSNLGIIAHAGQGVSQTLRAMAGGPTSDISTGSSVGYPDFPTSPGSWLDEMDHPPF
partner: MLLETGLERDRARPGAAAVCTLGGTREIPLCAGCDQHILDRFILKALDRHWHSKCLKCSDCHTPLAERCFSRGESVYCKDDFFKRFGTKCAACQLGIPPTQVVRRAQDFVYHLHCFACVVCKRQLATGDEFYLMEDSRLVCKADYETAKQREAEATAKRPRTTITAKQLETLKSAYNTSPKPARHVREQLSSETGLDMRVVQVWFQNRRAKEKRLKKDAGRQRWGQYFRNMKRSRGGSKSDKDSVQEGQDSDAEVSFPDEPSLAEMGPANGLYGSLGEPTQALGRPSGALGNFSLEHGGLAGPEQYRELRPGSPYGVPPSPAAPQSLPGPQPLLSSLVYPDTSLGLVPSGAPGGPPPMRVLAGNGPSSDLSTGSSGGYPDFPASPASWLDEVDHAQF
B2: LIM/homeobox protein Lhx4 (Homo sapiens), Q969G2 (parent)
chain: B1 chain
partner: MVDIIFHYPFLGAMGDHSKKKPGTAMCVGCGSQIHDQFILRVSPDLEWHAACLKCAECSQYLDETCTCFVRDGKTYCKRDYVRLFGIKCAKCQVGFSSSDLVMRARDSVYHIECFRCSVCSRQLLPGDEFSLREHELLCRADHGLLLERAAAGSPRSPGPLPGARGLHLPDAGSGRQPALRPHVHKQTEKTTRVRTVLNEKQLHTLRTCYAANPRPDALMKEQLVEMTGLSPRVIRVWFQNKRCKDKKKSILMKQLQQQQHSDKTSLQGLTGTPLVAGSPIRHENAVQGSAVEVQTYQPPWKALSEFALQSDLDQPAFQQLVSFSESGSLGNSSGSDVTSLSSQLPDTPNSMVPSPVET

Variants of: B1
Details: with lhx3_human LHX3, Q9UBR4

effect of a mutation on the interaction | Variant
decreasing interaction strength | MMQSATVPAEGAVKGLPEMLGVPMQQIPQCAGCNQHILDKFILKVLDRHWHSSCLKAADAQMQLADRCFSRAGSVYCKEDFFKRFGTKCTACQQGIPPTQVVRKAQDFVYHLHCFACIICNRQLATGDEFYLMEDGRLVCKEDYETAKQNDDSEAGAKRPRTTITAKQLETLKNAYKNSPKPARHVREQLSSETGLDMRVVQVWFQNRRAKEKRLKKDAGRHRWGQFYKSVKRSRGSSKQEKESSAEDCGVSDSELSFREDQILSELGHTNRIYGNVGDVTGGQLMNGSFSMDGTGQSYQDLRDGSPYGIPQSPSSISSLPSHAPLLNGLDYTVDSNLGIIAHAGQGVSQTLRAMAGGPTSDISTGSSVGYPDFPTSPGSWLDEMDHPPF [C57A;C60A]
with no effect | MMQSATVPAEGAVKGLPEMLGVPMQQIPQCAGCNQHILDKFILKVLDRHWHSSCLKCADCQMQLVDRCFSRAGSVYCKEDFFKRFGTKCTACQQGIPPTQVVRKAQDFVYHLHCFACIICNRQLATGDEFYLMEDGRLVCKEDYETAKQNDDSEAGAKRPRTTITAKQLETLKNAYKNSPKPARHVREQLSSETGLDMRVVQVWFQNRRAKEKRLKKDAGRHRWGQFYKSVKRSRGSSKQEKESSAEDCGVSDSELSFREDQILSELGHTNRIYGNVGDVTGGQLMNGSFSMDGTGQSYQDLRDGSPYGIPQSPSSISSLPSHAPLLNGLDYTVDSNLGIIAHAGQGVSQTLRAMAGGPTSDISTGSSVGYPDFPTSPGSWLDEMDHPPF [A65V]

Variants of: B2
Details: with isl2_human ISL2, Q96A47

effect of a mutation on the interaction | Variant
with no effect | MMQSATVPAEGAVKGLPEMLGVPMQQIPQCAGCNQHILDKFILKVLDRHWHSSCLKCADCQMQLVDRCFSRAGSVYCKEDFFKRFGTKCTACQQGIPPTQVVRKAQDFVYHLHCFACIICNRQLATGDEFYLMEDGRLVCKEDYETAKQNDDSEAGAKRPRTTITAKQLETLKNAYKNSPKPARHVREQLSSETGLDMRVVQVWFQNRRAKEKRLKKDAGRHRWGQFYKSVKRSRGSSKQEKESSAEDCGVSDSELSFREDQILSELGHTNRIYGNVGDVTGGQLMNGSFSMDGTGQSYQDLRDGSPYGIPQSPSSISSLPSHAPLLNGLDYTVDSNLGIIAHAGQGVSQTLRAMAGGPTSDISTGSSVGYPDFPTSPGSWLDEMDHPPF [A65V]
decreasing interaction strength | MMQSATVPAEGAVKGLPEMLGVPMQQIPQCAGCNQHILDKFILKVLDRHWHSSCLKAADAQMQLADRCFSRAGSVYCKEDFFKRFGTKCTACQQGIPPTQVVRKAQDFVYHLHCFACIICNRQLATGDEFYLMEDGRLVCKEDYETAKQNDDSEAGAKRPRTTITAKQLETLKNAYKNSPKPARHVREQLSSETGLDMRVVQVWFQNRRAKEKRLKKDAGRHRWGQFYKSVKRSRGSSKQEKESSAEDCGVSDSELSFREDQILSELGHTNRIYGNVGDVTGGQLMNGSFSMDGTGQSYQDLRDGSPYGIPQSPSSISSLPSHAPLLNGLDYTVDSNLGIIAHAGQGVSQTLRAMAGGPTSDISTGSSVGYPDFPTSPGSWLDEMDHPPF [C57A;C60A]
